According to patent US7507790 (UNIVERSITY OF SUSSEX, dated 2009):

Biological target: T1, SAF-p2a
T1 construct: also called self-assembling peptide; straight
T1 peptide: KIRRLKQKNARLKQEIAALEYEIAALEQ
Assay: co-assembly into fibres, seen by TEM (each peptide at 100 µM, 22° C. overnight)
Protocol: All samples of fibres were prepared with SAF-p1 and SAF-p2a (each at 100 μM concentration) with the designated amounts of FiSh peptides, and incubated at 22° C. overnight following the techniques described in Pandya et al., 2000 (supra).

B1: SAF-p1 (peptide)
peptide: KIAALKQKIASLKQEIDALEYENDALEQ
notes: Synthetic de novo leucine-zipper peptide made by Fmoc solid-phase synthesis; also called self-assembling peptide; straight
Does B1 bind?
Result: binds
